This is an account of results in article PMC3983370.

The target of this data set is HCoV-OC43 nucleocapsid (N) protein WT (Human coronavirus OC43, UniProt P33469 1-448). The data set is described as follows: SPR. (In SPR one partner is held on a chip, and binding of the other changes the refractive index at the surface.)
Sequence of HCoV-OC43 nucleocapsid (N) protein WT (P33469 whole entry): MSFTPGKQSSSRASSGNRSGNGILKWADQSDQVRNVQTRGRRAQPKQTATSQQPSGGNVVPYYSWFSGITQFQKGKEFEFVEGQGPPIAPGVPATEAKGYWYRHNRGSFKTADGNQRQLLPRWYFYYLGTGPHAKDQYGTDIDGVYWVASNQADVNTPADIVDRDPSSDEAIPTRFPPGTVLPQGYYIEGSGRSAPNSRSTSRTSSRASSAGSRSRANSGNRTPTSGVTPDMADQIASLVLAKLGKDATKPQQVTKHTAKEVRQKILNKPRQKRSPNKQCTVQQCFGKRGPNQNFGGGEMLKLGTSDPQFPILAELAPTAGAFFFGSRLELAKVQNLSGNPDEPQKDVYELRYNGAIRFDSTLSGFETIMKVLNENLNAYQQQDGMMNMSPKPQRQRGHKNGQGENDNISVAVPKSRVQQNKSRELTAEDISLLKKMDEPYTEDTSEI

Consider UCUAAACUCUAAACUCUAAACUCUAAAC (ssRNA) [(UCUAAAC)4 repeated intergenic sequence], for which the Kd (as a rule, the constant that tells how readily two partners part at equilibrium) was found to be 11.7 ± 0.8 nM.
